# Changes are numbered by the printed parent chain.
# T1: FcgRIIb (human, UniProt P31994 43-217)
# T1 construct: extracellular domain; also called FcγRIIb
# T1 sequence (looked up): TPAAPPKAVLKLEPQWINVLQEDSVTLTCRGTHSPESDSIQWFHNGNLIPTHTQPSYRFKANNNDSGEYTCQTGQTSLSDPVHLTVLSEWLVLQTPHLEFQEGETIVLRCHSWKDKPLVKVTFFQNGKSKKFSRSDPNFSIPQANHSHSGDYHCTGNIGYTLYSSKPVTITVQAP
# T2: FcgRIIaR (human, UniProt P12318 34-217)
# T2 construct: extracellular domain; also called FcγRIIa R type; FcγRIIa (R type)
# T2 sequence (looked up): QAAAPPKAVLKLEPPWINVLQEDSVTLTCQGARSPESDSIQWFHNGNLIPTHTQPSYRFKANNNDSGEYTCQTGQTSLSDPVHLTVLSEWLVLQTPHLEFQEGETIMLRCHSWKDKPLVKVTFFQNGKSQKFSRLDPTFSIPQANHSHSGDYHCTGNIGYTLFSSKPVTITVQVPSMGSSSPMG
# B1: IL6R-P745/IL6R-L (antibody, human IgG1, kappa)
# heavy: QVQLQESGPGLVKPSETLSLTCAVSGHSISHDHAWSWVRQPPGEGLEWIGFISYSGITNYNPSLQGRVTISRDNSKNTLYLQMNSLRAEDTAVYYCARSLARTTAMDYWGEGTLVTVSSASTKGPSVFPLAPSSKSTSGGTAALGCLVKDYFPEPVTVSWNSGALTSGVHTFPAVLQSSGLYSLSSVVTVPSSSLGTQTYICNVNHKPSNTKVDKKVEPKSCDKTHTCPPCPAPELLGGDSVFLFPPKPKDTLMISRTPEVTCVVVDVSHEDPEVKFNWYVDGVEVHNAKTKPREEQYNATYRVVSVLTVLHQDWLNGKEYKCEVSNKALPAPIEKTISKAKGQPREPQVYTLPPSRDELTKNQVSLTCLVKGFYPSDIAVEWESNGQPENNYKTTPPVLDSDGSFFLYSKLTVDKSRWQQGNVFSCSVMHEALHNHYTQKSLSLSP
# light: not shown
# B2: IL6R-P752/IL6R-L (antibody, human IgG1, kappa)
# heavy: B1 heavy with L237F, G239Q, F243M, H270P, Y298E, A300S, E324A, S326H
# light: not shown
# B3: IL6R-P748/IL6R-L (antibody, human IgG1, kappa)
# heavy: B1 heavy with G239Q, F243M, H270P, Y298E, A300S, E324A, A332H
# light: not shown
# B4: IL6R-P761/IL6R-L (antibody, human IgG1, kappa)
# heavy: B1 heavy with E235D, G239D, H270E, P273G, A300S, E324K, A329G, A332S, P333S
# light: not shown
# B5: IL6R-P756/IL6R-L (antibody, human IgG1, kappa)
# heavy: B1 heavy with E235D, V266I, S269A, H270E, P273G, A300S, E324K, A329G, A332S, P333S
# light: not shown
# B6: IL6R-P758/IL6R-L (antibody, human IgG1, kappa)
# heavy: B1 heavy with G239D, H270D, P273G, A300S, E324K, A329G, A332S, P333S
# light: not shown
# B7: IL6R-P749/IL6R-L (antibody, human IgG1, kappa)
# heavy: B1 heavy with G239Q, F243M, H270P, Y298E, A300S, A332H
# light: not shown
# B8: IL6R-P753/IL6R-L (antibody, human IgG1, kappa)
# heavy: B1 heavy with L237F, G239Q, F243M, H270P, Y298E, A300S, S326H
# light: not shown
# B9: IL6R-P750/IL6R-L (antibody, human IgG1, kappa)
# heavy: B1 heavy with L237F, G239Q, F243M, H270P, Y298E, A300S, E324A
# light: not shown
# B10: IL6R-P768/IL6R-L (antibody, human IgG1, kappa)
# heavy: B1 heavy with V266I, S269A, P273G, A300S, E324K, A329G, A332S, P333S
# light: not shown
# B11: IL6R-P754/IL6R-L (antibody, human IgG1, kappa)
# heavy: B1 heavy with G239Q, F243M, H270P, Y298E, A300S, E324A, S326H, A332H
# light: not shown
# B12: IL6R-P764/IL6R-L (antibody, human IgG1, kappa)
# heavy: B1 heavy with V266I, H270E, P273G, A300S, E324K
# light: not shown
# B13: IL6R-P747/IL6R-L (antibody, human IgG1, kappa)
# heavy: B1 heavy with L237F, G239Q, F243M, Y298E, A300S
# light: not shown
# B14: IL6R-P746/IL6R-L (antibody, human IgG1, kappa)
# heavy: B1 heavy with L237F, G239Q, F243M, Y298E, A300S, E324A
# light: not shown
# B15: IL6R-P759/IL6R-L (antibody, human IgG1, kappa)
# heavy: B1 heavy with E235D, G239D, H270D, P273G, A300S, E324K, A329G, A332S, P333S
# light: not shown
# B16: IL6R-P766/IL6R-L (antibody, human IgG1, kappa)
# heavy: B1 heavy with S269A, H270E, P273G, A300S, E324K, A329G, A332S, P333S
# light: not shown
# B17: IL6R-P762/IL6R-L (antibody, human IgG1, kappa)
# heavy: B1 heavy with P273G, A300S, E324K, A329G, A332S, P333S
# light: not shown
# B18: IL6R-P757/IL6R-L (antibody, human IgG1, kappa)
# heavy: B1 heavy with V266I, S269A, H270E, P273G, A300S, E324K, A329G, A332S, P333S
# light: not shown
# B19: IL6R-P760/IL6R-L (antibody, human IgG1, kappa)
# heavy: B1 heavy with G239D, H270E, P273G, A300S, E324K, A329G, A332S, P333S
# light: not shown
# B20: IL6R-P751/IL6R-L (antibody, human IgG1, kappa)
# heavy: B1 heavy with L237F, G239Q, F243M, H270P, Y298E, A300S
# light: not shown
# B21: IL6R-P755/IL6R-L (antibody, human IgG1, kappa)
# heavy: B1 heavy with G239Q, F243M, H270P, Y298E, A300S, S326H, A332H
# light: not shown
# B22: IL6R-P767/IL6R-L (antibody, human IgG1, kappa)
# heavy: B1 heavy with V266I, H270E, P273G, A300S, E324K, A329G, A332S, P333S
# light: not shown
# B23: IL6R-P765/IL6R-L (antibody, human IgG1, kappa)
# heavy: B1 heavy with V266I, S269A, P273G, A300S, E324K
# light: not shown
# B24: IL6R-P763/IL6R-L (antibody, human IgG1, kappa)
# heavy: B1 heavy with S269A, H270E, P273G, A300S, E324K
# light: not shown
# Target: T3, human complement C1q (human, UniProt P02745 23-245; P02746 28-253; P02747 29-245)
# T3 construct: Bought (PROSPEC or Calbiochem); also called human C1q
# T3 sequence (P02745 23-245 limits assumed, chain 1 of 3): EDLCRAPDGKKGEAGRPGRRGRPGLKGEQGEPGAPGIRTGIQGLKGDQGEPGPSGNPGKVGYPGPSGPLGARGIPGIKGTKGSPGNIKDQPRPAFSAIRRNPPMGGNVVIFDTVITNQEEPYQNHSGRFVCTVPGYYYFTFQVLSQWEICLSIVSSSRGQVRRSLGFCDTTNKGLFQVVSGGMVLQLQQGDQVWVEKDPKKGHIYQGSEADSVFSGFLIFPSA
# T3 sequence (P02746 28-253 limits assumed, chain 2 of 3): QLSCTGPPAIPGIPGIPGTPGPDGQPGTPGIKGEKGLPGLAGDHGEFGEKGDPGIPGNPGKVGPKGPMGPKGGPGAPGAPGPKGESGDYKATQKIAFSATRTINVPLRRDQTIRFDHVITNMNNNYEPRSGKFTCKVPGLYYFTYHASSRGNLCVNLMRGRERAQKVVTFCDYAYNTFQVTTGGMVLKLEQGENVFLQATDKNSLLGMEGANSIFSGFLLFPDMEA
# T3 sequence (P02747 29-245 limits assumed, chain 3 of 3): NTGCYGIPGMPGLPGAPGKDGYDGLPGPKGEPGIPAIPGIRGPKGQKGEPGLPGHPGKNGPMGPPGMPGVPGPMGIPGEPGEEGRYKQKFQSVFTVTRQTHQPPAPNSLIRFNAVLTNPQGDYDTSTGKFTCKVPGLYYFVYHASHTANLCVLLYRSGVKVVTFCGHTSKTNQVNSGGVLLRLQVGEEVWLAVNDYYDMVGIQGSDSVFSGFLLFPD
# Assay: SPR, C1q bound per antibody captured on Protein L
# Protocol: The interaction between an antibody and human C1q was analyzed using Biacore T200 (GE Healthcare). HBS-EP+ (GE Healthcare) was used as the running buffer, and the measurement temperature was set at 25° C. Chips produced by immobilizing Protein L (ACTIGEN or BioVision) onto Series S sensor Chip CM4 (GE Healthcare) by amine coupling were used.
# The antibodies of interest were captured onto these sensor chips, and allowed to interact with human complement C1q (PROSPEC or Calbiochem) diluted in the running buffer. The amount of antibody binding was determined, and comparisons were made among the antibodies. However, since the amount of C1q bound depends on the amount of captured antibodies, corrected values obtained by dividing the amount of C1q bound by the amount of each antibody captured were compared. Furthermore, by reaction with 10 mM glycine-HCl, pH 1.5, the antibodies captured onto the sensor chips were washed, and the sensor chips were recycled and reused.
row,Binder,Amount of C1q-binding when that for G1d is Defined as 100 [G1d=100]
1,B1,20.9
2,B2,1.1
3,B3,1.4
4,B4,2.1
5,B5,15
6,B6,2
7,B7,13.8
8,B8,14
9,B9,1.2
10,B10,14
11,B11,1.8
12,B12,23.1
13,B13,13.7
14,B14,1.4
15,B15,14.5
16,B16,21.8
17,B17,14.6
18,B18,22.6
19,B19,21.7
20,B20,13.9
21,B21,14.4
22,B22,1.7
23,B23,46.6
24,B24,41.7

# Target: T1, FcgRIIb
# Assay: SPR, amount bound per captured antibody
row,Binder,Relative FcgRIIb-binding Activity [IL6R-G1d/IL6R-L=100]
1,B1,95.4
2,B2,62.9
3,B3,42.7
4,B4,320
5,B5,323
6,B6,285
7,B7,73.9
8,B8,103
9,B9,48.1
10,B10,305
11,B11,85.8
12,B12,329
13,B13,98.1
14,B14,57.5
15,B15,305
16,B16,286
17,B17,252
18,B18,327
19,B19,304
20,B20,72.5
21,B21,130
22,B22,318
23,B23,340
24,B24,332

# Target: T2, FcgRIIaR
# Assay: SPR, amount bound per captured antibody
row,Binder,Relative FcgRIIaR-binding Activity [IL6R-G1d/IL6R-L=100]
1,B1,13.7
2,B2,7.2
3,B3,5.1
4,B4,103
5,B5,92.4
6,B6,90.6
7,B7,6.8
8,B8,10.4
9,B9,6.1
10,B10,80.9
11,B11,5.6
12,B12,89.5
13,B13,10
14,B14,7
15,B15,96.5
16,B16,88.1
17,B17,75.8
18,B18,89.2
19,B19,97.1
20,B20,7.4
21,B21,9.8
22,B22,84.2
23,B23,93.2
24,B24,101
